Source: publication PMC3199388
Changes are numbered by the printed parent chain. Like-named read-outs stand apart in the source and are kept apart here.

T1: Dcr1 dsRBD K1265A (helix 1) (Schizosaccharomyces pombe, UniProt Q09884 1258-1358, K1265A)
T1 sequence: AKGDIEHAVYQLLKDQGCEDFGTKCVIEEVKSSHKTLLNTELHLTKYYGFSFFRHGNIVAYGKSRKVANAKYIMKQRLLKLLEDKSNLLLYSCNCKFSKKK

T2: Dcr1 dsRBD R1322A (loop 4) (Schizosaccharomyces pombe, UniProt Q09884 1258-1358, R1322A)
T2 sequence: T1 sequence with A8K, R65A

T3: Dcr1 C-terminal extended dsRBD (Schizosaccharomyces pombe, UniProt Q09884 1258-1358)
T3 sequence: T1 sequence with A8K

B1: dsRNA 24 bp (RNAfwd/RNArev) (dsRNA)
RNA 1: GGGAUCAAUAUGCUAAGCGAUCCC
RNA 2: GGGAUCGCUUAGCAUAUUGAUCCC
B2: dsDNA 24 bp (DNAfwd/DNArev) (dsDNA)
DNA 1: GGGATCAATATGCTAAGCGATCCC
DNA 2: GGGATCGCTTAGCATATTGATCCC

What was measured:
Test in all cases: ITC
[1] = target: T1, Dcr1 dsRBD K1265A (helix 1)
[2] = target: T2, Dcr1 dsRBD R1322A (loop 4)
[3] = target: T3, Dcr1 C-terminal extended dsRBD
[4] = target: T3, Dcr1 C-terminal extended dsRBD; remark: listed apart in the source

Row | Binder | binding result [1] | binding result [2] | Kd [3] [nM] | Kd [4] [nM]
1 | B1 | no binding | no binding | 800 | –
2 | B2 | no binding | no binding | – | 1500
